One block for each substance: values may come before it.
Assays:
[1] = biological target: tissue factor (TF) antigen (UniProt P13726); assay: SPR (ProteOn), Fab captured by anti-penta-His, TF as analyte, 1:1 fit; estimated value taken from the Fab differing only in L chain tag
[2] = biological target: tissue factor (TF) antigen (UniProt P13726); assay: SPR (ProteOn), against wild-type D3H44 Fab; estimated value taken from the Fab differing only in L chain tag
[3] = biological target: tissue factor (TF) antigen (UniProt P13726); assay: SPR (ProteOn XPR36), Fab captured on anti-penta-His, TF injected, 1:1 fit
[4] = biological target: tissue factor (TF) antigen (UniProt P13726); assay: SPR, against wild-type D3H44 Fab
[5] = biological target: tissue factor (TF) antigen (UniProt P13726); assay: SPR, Fab captured by anti-penta-His, TF injected, 1:1 fit
[6] = biological target: tissue factor (TF) antigen (UniProt P13726); assay: SPR; log change of median KD against wild-type D3H44 Fab
[7] = biological target: D3H44 light chain F116A_Q124R_L135V_T178R; assay: LCCA, SPR tag readout, L1:L2 DNA 1:3 normalized to 1:1; competitor m24
[8] = biological target: D3H44 light chain F116A_Q124R_L135V; assay: as above
[9] = biological target: D3H44 light chain Q124E_L135W_Q160E_T180E; assay: LCCA, SPR tag readout, L1:L2 DNA 1:3 normalized to 1:1; competitor m25
[10] = biological target: D3H44 light chain Q124E_L135W_Q160E_T180E; assay: LCCA, SPR tag readout, L1:L2 DNA 1:3 normalized to 1:1; competitor m23
[11] = biological target: D3H44 light chain Q124E_L135W_Q160E_T180E; assay: LCCA, SPR tag readout, L1:L2 DNA 1:9 normalized to 1:1; competitor m23
[12] = biological target: D3H44 light chain F116A_Q124R_L135V_T178R; assay: LCCA, SPR tag readout, L1:L2 DNA 1:9 normalized to 1:1; competitor m24
[13] = biological target: D3H44 light chain F116A_Q124R_L135V; assay: as above
[14] = biological target: D3H44 light chain Q124E_L135W_Q160E_T180E; assay: LCCA, SPR tag readout, L1:L2 DNA 1:9 normalized to 1:1; competitor m25
[15] = biological target: D3H44 light chain Q38E_Q124E_Q160E_T180E; assay: LCCA, SPR tag readout, L1:L2 DNA 1:3 normalized to 1:1; competitor m21
[16] = biological target: D3H44 light chain Q38E_Q124E_Q160E_T180E; assay: LCCA, SPR tag readout, L1:L2 DNA 1:9 normalized to 1:1; competitor m21
[17] = biological target: D3H44 light chain Q38R_S131K; assay: LCCA, SPR tag readout, L1:L2 DNA 1:3 normalized to 1:1; competitor m19
[18] = biological target: D3H44 light chain Q38R_S131K; assay: LCCA, SPR tag readout, L1:L2 DNA 1:9 normalized to 1:1; competitor m19
[19] = biological target: tissue factor (TF) antigen (UniProt P13726); assay: SPR, Fab captured on anti-penta-His, TF as analyte; against wild-type D3H44 Fab; batch C
[20] = biological target: tissue factor (TF) antigen (UniProt P13726); assay: SPR, Fab captured on anti-penta-His, TF as analyte, 1:1 fit; batch C

Kd [1]: 0.15 nM
Change in KD with respect to wild type (-(log(KD design) - log(KD wt))) [2]: 0.02
Substance: D3H44 Fab heterodimer, H1L1 of LCCA set 9131 (H: L124E_K145M_Q179E; L: S131K_V133G_S176R)

Kd [1]: 0.19 nM
Change in KD with respect to wild type (-(log(KD design) - log(KD wt))) [2]: -0.08
Substance: D3H44 Fab heterodimer, H1L1 of LCCA set 9657 (H: L143E_K145T_Q179E; L: Q124R_T178K)

Kd [3]: 0.16 nM
Change in median values of KD of h1l1 Fab heterodimer compared to wild type (-(log(KD design)-log(KD wt))) [4]: -0.01
Substance: H1L1 Fab heterodimer of LCCA Set # 9074 (D3H44 Fab; H1 H172R_Q179K, L1 Q124E_Q160E_T180E)

Kd [5]: 0.27 nM
Change in median values of KD of h1l1 Fab heterodimer compared to wild type (-(log(KD design)-log(KD wt))) [6]: -0.23 log units
Substance: H1L1 Fab heterodimer of LCCA sets 9574 and 9573 (D3H44 Fab, H1 L143A_Q179K, L1 Q124E_V133Y_T180E)

Kd [5]: 0.12 nM
Change in median values of KD of h1l1 Fab heterodimer compared to wild type (-(log(KD design)-log(KD wt))) [6]: 0.12 log units
Substance: H1L1 Fab heterodimer of LCCA set 9058 (D3H44 Fab, H1 A139W_L143E_K145T_Q179E, L1 F116A_Q124R_L135V)

H2L2:H2L1 normalized median ratio [7]: 12%
H2L2:H2L1 normalized median ratio [8]: 23%
H2L2:H2L1 normalized median ratio [9]: 77%
H2L2:H2L1 normalized median ratio [10]: 88%
H2L2:H2L1 normalized median ratio [11]: 87%
H2L2:H2L1 normalized median ratio [12]: 13%
H2L2:H2L1 normalized median ratio [13]: 20%
H2L2:H2L1 normalized median ratio [14]: 80%
Substance: D3H44 Fab heavy chain Q179K

Kd [3]: 0.3 nM
Change in median values of KD of h1l1 Fab heterodimer compared to wild type (-(log(KD design)-log(KD wt))) [4]: -0.28
Substance: H1L1 Fab heterodimer of LCCA Set # 9569 (D3H44 Fab; H1 L124W_L143F, L1 V133A_S176T_T178L)

Kd [3]: 0.14 nM
Change in median values of KD of h1l1 Fab heterodimer compared to wild type (-(log(KD design)-log(KD wt))) [4]: 0.04
Substance: H1L1 Fab heterodimer of LCCA Set # 9073 (D3H44 Fab; H1 F174V, L1 S131T_S176F_T178Y)

H1L1:H1L2 normalized median ratio [15]: 7%
H1L1:H1L2 normalized median ratio [16]: 11%
H1L1:H1L2 normalized median ratio [17]: 93%
H1L1:H1L2 normalized median scalar value ln(r1/f1) [17]: 2.53
H1L1:H1L2 normalized median ratio [18]: 89%
H1L1:H1L2 normalized median scalar value ln(r1/f1) [18]: 2.09
Substance: D3H44 Fab heavy chain Q39E_K145T_H172R_Q179E

change in median KD compared to wild type, -(log(KD design)-log(KD wt)) [19]: 0
Kd [20]: 0.16 nM
Substance: D3H44 Fab heterodimer, H1 Q179R / L1 S131E (H1L1 Fab of LCCA Set # 9980)

change in median KD compared to wild type, -(log(KD design)-log(KD wt)) [19]: 0.06
Kd [20]: 0.14 nM
Substance: D3H44 Fab heterodimer, H1 S186R / L1 Q124E_Q160E_T178E (H1L1 Fab of LCCA Set # 9867 and 9868)

Kd [1]: 0.14 nM
Change in KD with respect to wild type (-(log(KD design) - log(KD wt))) [2]: 0.05
Substance: D3H44 Fab heterodimer, H1L1 of LCCA set 9645 (H: L143E_K145T_Q179E; L: Q124K_T178R)

change in median KD compared to wild type, -(log(KD design)-log(KD wt)) [19]: 0.01
Kd [20]: 0.15 nM
Substance: D3H44 Fab heterodimer, H1 S186K / L1 Q124E_T178E (H1L1 Fab of LCCA Set # 9850 and 9849)

H2L2:H2L1 normalized median ratio [15]: 96%
H2L2:H2L1 normalized median ratio [16]: 96%
H2L2:H2L1 normalized median ratio [17]: 4%
H2L2:H2L1 normalized median ratio [18]: 4%
Substance: D3H44 Fab heavy chain Q39R_S186R

H1L1:H1L2 normalized median ratio [7]: 98%
H1L1:H1L2 normalized median scalar value ln(r1/f1) [7]: 3.79
H2L2:H2L1 normalized median ratio [7]: 98%
H1L1:H1L2 normalized median ratio [8]: 97%
H1L1:H1L2 normalized median scalar value ln(r1/f1) [8]: 3.66
H2L2:H2L1 normalized median ratio [8]: 97%
H1L1:H1L2 normalized median ratio [9]: 3%
H2L2:H2L1 normalized median ratio [9]: 3%
H1L1:H1L2 normalized median ratio [10]: 2%
H2L2:H2L1 normalized median ratio [10]: 2%
H1L1:H1L2 normalized median ratio [11]: 3%
H2L2:H2L1 normalized median ratio [11]: 3%
H1L1:H1L2 normalized median ratio [12]: 97%
H1L1:H1L2 normalized median scalar value ln(r1/f1) [12]: 3.38
H2L2:H2L1 normalized median ratio [12]: 97%
H1L1:H1L2 normalized median ratio [13]: 95%
H1L1:H1L2 normalized median scalar value ln(r1/f1) [13]: 2.96
H2L2:H2L1 normalized median ratio [13]: 95%
H1L1:H1L2 normalized median ratio [14]: 5%
H2L2:H2L1 normalized median ratio [14]: 5%
Substance: D3H44 Fab heavy chain A139W_L143E_K145T_Q179E
